Results reported in publication PMC4358337, “How lamina-associated polypeptide 1 (LAP1) activates Torsin” (eLife, 2014).

What was measured:
Conditions in all cases: both partners purified
[1] = target: T1, human TorsinA(E171Q) (aa51-322) (human, UniProt O14656 51-322, E171Q); test: SEC; analytical gel filtration of the co-purified complexes, Superdex 200 10/300, 10 mM HEPES/NaOH pH 8.0, 150 mM NaCl, 10 mM MgCl2, 0.5 mM ATP; peak fractions by SDS-PAGE
T1 construct: human TorsinA, aa51-322 as printed; Captured by its tag on nickel resin; the nickel eluate was used directly for electron microscopy; Whether the tag was removed before the analytical gel filtration and the precipitation assay is not clearly told; not shown: 6xHis-7xArg, N-terminal, kept
T1 sequence (looked up): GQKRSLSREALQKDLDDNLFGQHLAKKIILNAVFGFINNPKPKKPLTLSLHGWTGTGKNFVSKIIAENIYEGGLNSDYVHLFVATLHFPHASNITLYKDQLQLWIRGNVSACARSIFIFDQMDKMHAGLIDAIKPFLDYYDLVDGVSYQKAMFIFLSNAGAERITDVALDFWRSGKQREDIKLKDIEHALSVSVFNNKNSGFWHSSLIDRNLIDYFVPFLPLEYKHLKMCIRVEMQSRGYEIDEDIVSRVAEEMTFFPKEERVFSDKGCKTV

[2] = target: T2, luminal domain of human LAP1 (aa356-583) (human, UniProt Q5JTV8); test: crystal structure; LAP1-VHH-BS1 complex formed with twofold molar excess of VHH-BS1, SEC purified; crystals in 20% PEG 3350, 100 mM Bis-Tris pH 5.5, 200 mM ammonium sulfate, 18°C; 1.6 Å
T2 construct: luminal domain of human lamina-associated polypeptide 1 (LAP1), aa356-583; Tag removed with human rhinovirus 3C protease; disulfide bond C424-C582 seen in the structure; also called LAP1(356-583); Lamina-associated polypeptide 1; not shown: 6xHis-7xArg, N-terminal, cleaved

[3] = target: T3, luminal domain of human LAP1 (aa356-583), untagged, co-expressed with TorsinA (human, UniProt Q5JTV8); test: in vitro precipitation assay (competition); 100 pmol preformed TorsinA(E171Q):LAP1 complex with 200 pmol VHH, 4°C, 10 mM HEPES/NaOH pH 8.0, 150 mM NaCl, 10 mM MgCl2, 0.25 mM ATP; soluble and insoluble protein separated by centrifugation, SDS-PAGE
T3 construct: luminal domain of human lamina-associated polypeptide 1 (LAP1), aa356-583, untagged; From a second, kanamycin resistant modified pETDuet-1 vector; also called LAP1(356-583)
T3 sequence (Q5JTV8 356-583): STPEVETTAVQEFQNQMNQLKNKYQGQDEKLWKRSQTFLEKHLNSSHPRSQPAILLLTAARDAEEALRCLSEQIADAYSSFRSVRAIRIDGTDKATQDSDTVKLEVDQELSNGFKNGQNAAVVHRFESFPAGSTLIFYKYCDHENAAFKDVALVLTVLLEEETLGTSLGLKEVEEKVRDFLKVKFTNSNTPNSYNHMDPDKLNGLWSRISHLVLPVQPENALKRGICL

T2 sequence (Q5JTV8 356-583): as above

B1: luminal domain of human LULL1 (aa233-470), untagged, co-expressed with TorsinA (domain or fragment)
chain: not shown
notes: luminal domain of human LULL1, aa233-470, untagged; The results once print LULL1(322-570); the methods print aa233-470 throughout; also called LULL1(233-470); Luminal domain-Like LAP1
In the case of B1, the “stoichiometry N” value [1] is reported as 1.

B2: VHH-BS1 (VHH)
VHH: QVQLVESGGGLVQAGGSLRLSCAASGRTLSSYAVGWFRQAPGLEREFVATISRSGGSTHYADSVKGRFTISRDNAKNTVYLQMNSLKPEDTAVYYCAATFTPDGSWYYTRGSSYDYWGQGTQVTVSS
notes: alpaca VHH selected by phage display against LAP1; Raised by immunising an alpaca with recombinant LAP1; expressed from pET-28b(+); also called camelid single domain (VHH) antibody fragment against LAP1
B2: binds [2]; binds [3].

B3: luminal domain of human LAP1 (aa356-583), untagged, co-expressed with TorsinA (domain or fragment)
chain: not shown
notes: luminal domain of human lamina-associated polypeptide 1 (LAP1), aa356-583, untagged; From a second, kanamycin resistant modified pETDuet-1 vector; also called LAP1(356-583)
B3 was tested, and the “stoichiometry N” value [1] was 1.
